Data as given in publication PMC4489650, “Aurora-A-Dependent Control of TACC3 Influences the Rate of Mitotic Spindle Assembly” (PLoS Genetics, 2015).
Each block holds one binder with its values, some of them ahead of it.

Columns and labels:
[1] = biological target: T1, AurA-DN (unphosphorylated Aurora-A 122–403 D274N) (UniProt O14965 122-403, D274N); experiment: NMR; residue pair 520/521
T1 sequence: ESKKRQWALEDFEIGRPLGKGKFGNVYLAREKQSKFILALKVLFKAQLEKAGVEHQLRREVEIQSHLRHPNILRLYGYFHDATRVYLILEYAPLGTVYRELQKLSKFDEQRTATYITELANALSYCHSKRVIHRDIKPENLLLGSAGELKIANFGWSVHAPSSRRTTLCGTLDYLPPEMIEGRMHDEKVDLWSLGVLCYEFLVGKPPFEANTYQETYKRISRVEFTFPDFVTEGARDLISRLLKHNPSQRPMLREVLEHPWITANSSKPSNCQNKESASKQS

[2] = biological target: T2, complex of AurA-DN/TPX2^1-43 (UniProt O14965 122-403; Q9ULW0 1-43, D274N); experiment: NMR; residue pair 519/520, with TPX2 1-43
[3] = biological target: T2, complex of AurA-DN/TPX2^1-43; experiment: NMR; residue pair 520/521, with TPX2 1-43
AurA-DN C290A, C393A = biological target: T3, AurA-DN C290A, C393A (UniProt O14965 122-403, D274N | C290A | C393A); experiment: SEC; AurA-DN C290A, C393A, TPX2^1-43 and TACC3act alone and in complex on a HiLoad Superdex 200 16/60 column; fractions analysed by SDS-PAGE; conditions: both partners purified
T3 construct: also called Aurora-A kinase domain (SEC); source: recombinant, purified; not further stated
T3 sequence (looked up): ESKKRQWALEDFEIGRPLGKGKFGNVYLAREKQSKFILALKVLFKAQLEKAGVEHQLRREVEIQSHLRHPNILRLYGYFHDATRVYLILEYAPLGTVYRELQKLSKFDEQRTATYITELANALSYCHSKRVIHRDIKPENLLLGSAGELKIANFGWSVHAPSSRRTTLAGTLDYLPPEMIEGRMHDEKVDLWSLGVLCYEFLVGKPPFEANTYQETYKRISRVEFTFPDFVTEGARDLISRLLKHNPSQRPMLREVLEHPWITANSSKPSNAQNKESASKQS

[4] = biological target: T4, complex of AurA-DN/TPX2^1-43 (UniProt O14965 122-403; Q9ULW0 1-43, D274N); experiment: NMR titration; 15N-labelled TACC3act (75 uM constant in titrations) with unlabelled AurA-DN or the AurA-DN/TPX2^1-43 complex at 0-225 uM; 1H-15N HSQC; 20 mM potassium phosphate pH 7.0, 50 mM NaCl, 1 mM DTT, 0.02% sodium azide, 5 mM ADP/MgCl2; chemical shift changes fit to Eq 1; conditions: both partners purified
T4 construct: TPX2, first 43 amino acids; Added as a complex in the NMR titration; source: mixed from the purified recombinant proteins m8 and m12
T4 sequence (looked up) 1: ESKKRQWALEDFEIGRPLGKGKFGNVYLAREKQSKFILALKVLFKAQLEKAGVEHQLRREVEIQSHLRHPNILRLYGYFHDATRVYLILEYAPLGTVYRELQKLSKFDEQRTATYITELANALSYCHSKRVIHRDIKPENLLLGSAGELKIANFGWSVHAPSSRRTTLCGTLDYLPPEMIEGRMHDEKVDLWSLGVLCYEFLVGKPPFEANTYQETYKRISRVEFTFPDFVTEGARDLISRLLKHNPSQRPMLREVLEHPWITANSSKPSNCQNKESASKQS
T4 sequence (looked up) 2: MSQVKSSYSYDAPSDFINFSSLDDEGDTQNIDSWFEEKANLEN

[5] = biological target: T5, AurA-DN (unphosphorylated Aurora-A 122–403 D274N) (UniProt O14965 122-403, D274N); experiment: as above; conditions: both partners purified
T5 construct: source: recombinant, expressed from pET30TEV, purified (Chelating Sepharose, SEC), dialysed into NMR buffer with 5 mM ADP/MgCl2
T5 sequence (looked up): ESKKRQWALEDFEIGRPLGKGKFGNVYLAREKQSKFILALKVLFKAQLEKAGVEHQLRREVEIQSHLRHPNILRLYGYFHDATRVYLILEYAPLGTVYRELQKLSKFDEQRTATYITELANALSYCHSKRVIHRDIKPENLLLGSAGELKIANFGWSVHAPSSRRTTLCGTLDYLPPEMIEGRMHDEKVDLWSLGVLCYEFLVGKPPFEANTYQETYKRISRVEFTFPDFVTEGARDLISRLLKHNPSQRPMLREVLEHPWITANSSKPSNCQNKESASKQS

[6] = biological target: T6, Aurora-A 122–403 C290A, C393A (UniProt O14965 122-403, C290A | C393A, labelled with NT-647-NHS dye); experiment: MST; 50 nM NT-647-labelled Aurora-A 122-403 C290A, C393A; TACC3act-H6c constructs 0.2-3950 uM; 50 mM Tris pH 7.6, 150 mM NaCl, 10 mM MgCl2, 5 mM beta-mercaptoethanol, 0.05% TWEEN 20; 25 C; one-site fit (Eq 2); conditions: both partners purified
T6 construct: also called labelled Aurora-A; source: recombinant, expressed from pET30TEV, purified (Chelating Sepharose, SEC)
T6 sequence (looked up): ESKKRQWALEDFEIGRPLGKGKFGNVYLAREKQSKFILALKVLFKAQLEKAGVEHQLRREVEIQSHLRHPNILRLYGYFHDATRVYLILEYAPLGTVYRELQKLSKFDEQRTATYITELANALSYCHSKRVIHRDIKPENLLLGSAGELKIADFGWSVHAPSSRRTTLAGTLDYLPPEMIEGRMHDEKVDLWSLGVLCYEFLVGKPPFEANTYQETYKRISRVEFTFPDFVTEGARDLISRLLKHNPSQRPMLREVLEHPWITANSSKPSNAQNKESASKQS

[7] = biological target: T7, TACC3-H6c (full-length human TACC3 with a C-terminal non-cleavable His-tag) (human, UniProt Q9Y6A5 1-838); experiment: pull-down; GST co-precipitation: 100 ug GST-AurA-DN (2 uM in the TPX2 gradient experiment, with 5 uM TACC3act-H6c and 1-50 uM His6-TPX2^1-43) immobilised on Gluthathione Sepharose 4B; 100 ug TACC3 or TPX2^1-43 added, 2 hrs at 4 C; 50 mM Tris pH 7.5, 150 mM NaCl, 5 mM MgCl2, 5 mM beta-mercaptoethanol, 0.02% TWEEN 20; SDS-PAGE and anti-His6 blot; conditions: both partners purified
T7 construct: TACC3, human, full length; also called full-length TACC3; TACC3-H6c WT; source: recombinant, expressed from pET-44C3, purified; not shown: His6, C-terminal, kept

[8] = biological target: T8, TACC3-H6c phospho-null mutant (SA: S34A, S552A, S558A) (human, UniProt Q9Y6A5 1-838, S34A | S552A | S558A); experiment: as above; conditions: both partners purified
T8 construct: TACC3, human, full length, three Aurora-A phosphorylation sites mutated to alanine; source: recombinant, expressed from pET-44C3, purified; not shown: His6, C-terminal, kept

[9] = biological target: T9, TACC3-H6c phospho-mimic mutant (SE: S34, S552 and S558 mutated to glutamic acid) (human, UniProt Q9Y6A5 1-838, S34 to glutamic acid | S552 to glutamic acid | S558 to glutamic acid); experiment: as above; conditions: both partners purified
T9 construct: TACC3, human, full length, three Aurora-A phosphorylation sites mutated to glutamic acid; source: recombinant, expressed from pET-44C3, purified; not shown: His6, C-terminal, kept

- Kd [1]: 7.5 µM
- Kd [2]: 0.6 µM
- Kd [3]: 1.6 µM
- binding result (AurA-DN C290A, C393A): binds
- Kd [4]: 1.1 ± 1.2 µM
- Kd [5]: 8.2 ± 0.8 µM
B1: TACC3act (human TACC3 residues 519–563) (domain or fragment, UniProt Q9Y6A5 519-563, looked up)
chain: ELKEESFRDPAEVLGTGAEVDYLEQFGTSSFKESALRKQSLYLKF
notes: also called ^15N-labelled TACC3act; source: recombinant, expressed from pETM6T1, purified (SEC); 15N- or 15N/13C-labelled for NMR

- Kd [6]: 5.7 ± 0.4 µM
B2: TACC3act-H6c (human TACC3 residues 519–563 with a C-terminal His-tag) (domain or fragment, UniProt Q9Y6A5 519-563, looked up)
chain: ELKEESFRDPAEVLGTGAEVDYLEQFGTSSFKESALRKQSLYLKF
notes: also called TACC3act-H6c WT; WT TACC3act; source: recombinant, construct made by the same method as TACC3-H6c, purified; not shown: His6, C-terminal, kept

- Kd [6]: 152 ± 9.3 µM
B3: TACC3act-H6c F525A (domain or fragment, human, UniProt Q9Y6A5 519-563, looked up)
chain: ELKEESARDPAEVLGTGAEVDYLEQFGTSSFKESALRKQSLYLKF
notes: also called F525A mutant; source: recombinant, purified; not shown: His6, C-terminal, kept

- binding result [7]: binds
- binding result [8]: binds
- binding result [9]: binds
B4: GST-AurA-DN (GST fused to Aurora-A catalytic domain 122–403 D274N) (domain or fragment, UniProt O14965 122-403, looked up)
chain: ESKKRQWALEDFEIGRPLGKGKFGNVYLAREKQSKFILALKVLFKAQLEKAGVEHQLRREVEIQSHLRHPNILRLYGYFHDATRVYLILEYAPLGTVYRELQKLSKFDEQRTATYITELANALSYCHSKRVIHRDIKPENLLLGSAGELKIANFGWSVHAPSSRRTTLCGTLDYLPPEMIEGRMHDEKVDLWSLGVLCYEFLVGKPPFEANTYQETYKRISRVEFTFPDFVTEGARDLISRLLKHNPSQRPMLREVLEHPWITANSSKPSNCQNKESASKQS
notes: also called GST-Aurora-A; source: recombinant, expressed from pGEX-cs, purified (Gluthathione Sepharose 4B, SEC); not shown: GST, N-terminal, kept
